These results are taken from patent publication US20230242902A1, “A HIGHLY ERROR-PRONE […] R[…] FOR TARGETED CONTINUOUS EVOLUTION IN VIVO” (The Regents of the University of California, priority 2017, published 2023).

Residue numbers refer to the chain shown, from its start. In names and notes the source's numbering stands.

B1: D407H: TP-DNAP1 variant (protein)
chain: MDYKDKALNDLRNVYADFDSLPLDFRQILIKDRATLLQKEDVEKKILERQEDAKKYAEYLKQSEIPERISLPNIKRHKGVSISFEETSEDMVLEPRPFIFDGLNIRCFRRETIFSLKNKILNMVKESSSFKNVSRQSVSFMYFKIFNKGKVIASTKSVNIYEDKIDERLEDLCNNFDDVLKKIIDVTYGYESLFVSETYSYVIFYAKSIYFPQPRCVNNWGNNIPNILTFDSFKLFTANKNNVSCIKQCSRFLWQKDFNTLEEMIEYKNGNICIVTPQLHINDVRDIKSFNDIRLYSESPIKTFSVIDNTITYLFYFKEHLGVIFNITKSRHDRRVTKFSPLSKFSDVKNITVCFDIESYFDPEKESNQVNIPFICCASIIYNKVIGNIVDFEGRDCVAQMIEYVVHICGELNISSVELIAHNGGGYDFHYILSSMYNPAAIKNILIRNNSFISFNFAHDGVKFSVKDSYSFLLCSLANASKAFLNEETFKKTDFPHHDLKTADDLYKVYKEWSSVNTEINHVVEKEKLLITSEHIVNFTKNDKSKTLIEWSKDYCRNDVLVLSKVWLEFKNAVEDIFNCELVDQTMTLAGLSYKLFQANMPFDVELRHPNKEDYFNMREALIGGRCISVNGIYKDVLCLDVKSLYPASMAFYDQPYGSFKRVSSRPKDELGIYYVRVTPNRNNKSNFFPIRSHNKITYNNFEESTYIAWYTNVDIDIGLSEGHNIEYIPFDSYGNIGYSWSKKGKIFEKYIKDVLYKLKIKYEKQNNKVKRNVIKIIMNSLWGKFAQKWVNFEYFIKSEDDIDFESEEAYKIWDTDFMLIKKIKESTYSSKPIQNGVFTLSWARYHMKSIWDAGAKEGAECIYSDTDSIFVHKEHFKKNAKFMLNGLKVPIIGSEVGQLELECEFDKLLCAGKKQYMGFYTYFQDGKPCIKEKKRFKGIPSNYIIPELYAHLLSGADKEAKIQFLKFRREWGSVKGYIENKTVKAT
B2: G410L: TP-DNAP1 variant (protein)
chain: B1 chain with H407D, G410L
B3: G410R: TP-DNAP1 variant (protein)
chain: B1 chain with H407D, G410R
B4: G410E: TP-DNAP1 variant (protein)
chain: B1 chain with H407D, G410E
B5: D407F: TP-DNAP1 variant (protein)
chain: B1 chain with H407F
B6: V406Q: TP-DNAP1 variant (protein)
chain: B1 chain with V406Q, H407D
B7: G410H: TP-DNAP1 variant (protein, listed as Kluyveromyces lactis)
chain: B1 chain with H407D, G410H
B8: G410I: TP-DNAP1 variant (protein)
chain: B1 chain with H407D, G410I
B9: G410K: TP-DNAP1 variant (protein)
chain: B1 chain with H407D, G410K
B10: D407V, S415T: TP-DNAP1 variant (protein)
chain: B1 chain with H407V, S415T
B11: D407T: TP-DNAP1 variant (protein)
chain: B1 chain with H407T
B12: G410Q: TP-DNAP1 variant (protein)
chain: B1 chain with H407D, G410Q
B13: D407M: TP-DNAP1 variant (protein)
chain: B1 chain with H407M
B14: I287M: TP-DNAP1 variant (protein, listed as Kluyveromyces lactis)
chain: B1 chain with I287M, H407D
B15: D407G: TP-DNAP1 variant (protein)
chain: B1 chain with H407G
B16: S289K: TP-DNAP1 variant (protein, listed as Kluyveromyces lactis)
chain: B1 chain with S289K, H407D
B17: G410M: TP-DNAP1 variant (protein)
chain: B1 chain with H407D, G410M
B18: D407C: TP-DNAP1 variant (protein)
chain: B1 chain with H407C
B19: D407A: TP-DNAP1 variant (protein)
chain: B1 chain with H407A
B20: L640A, M779L (protein)
chain: B1 chain with H407D, L640A, M779L
B21: L645M, I777K (protein)
chain: B1 chain with H407D, L645M, I777K
B22: L640G, I775A (protein)
chain: B1 chain with H407D, L640G, I775A
B23: Y653L, I775A (protein)
chain: B1 chain with H407D, Y653L, I775A
B24: L645M, M779L (protein)
chain: B1 chain with H407D, L645M, M779L
B25: F652L, I775A (protein)
chain: B1 chain with H407D, F652L, I775A
B26: L640Y, I777A (protein)
chain: B1 chain with H407D, L640Y, I777A
B27: L640G, I777A (protein)
chain: B1 chain with H407D, L640G, I777A
B28: L640N, I777A (protein)
chain: B1 chain with H407D, L640N, I777A
B29: L640G, I777K, W814N (protein)
chain: B1 chain with H407D, L640G, I777K, W814N

The subject of the first experiment is p1. The experiment can be described thus: p1 copy number by p1-encoded mKate2 fluorescence. In kind it is cell-based, S. cerevisiae. Particulars: OR-Y24, measured in triplicate. The gist of the method: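 Read-out is mKate2 fluorescence of saturated OR-Y24 cultures, measured by flow cytometry or by plate reader with OD600 normalization. Flow values were converted by a qPCR-derived linear calibration; plate values were scaled to a w.t. TP-DNAP1 control.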
Turning to B1, the “Mean fold-increase over w.t. (p1 copy number)” value (“Mean fold-increase” for short) amounted to 2.57 fold.

In the case of B2, the “Mean fold-increase” value was determined as 2.57 fold. The same measure, in the same setting: then B3, with 2.87 fold.

With B4, the “Mean fold-increase” value amounted to 2.37 fold. B5: the “Mean fold-increase” value came out at 2.28 fold. As to B6, the “Mean fold-increase” value is listed as 2.16 fold.

On to B7, for which the “Mean fold-increase” value turned out to be 2.19 fold. Same read-out and setting: in the case of B8 it was 2.57 fold; in that of B9, 2.53 fold. Same read-out and setting: then B10, with 1.95 fold; and B11, with 3.95 fold; and B12, with 2.2 fold.

For the molecule B13, the “Mean fold-increase” value was 2.71 fold. On the same count and under the same terms, in the case of B14 it was 2.39 fold. Same read-out and setting: in the case of B15 it was 2.53 fold; in that of B16, 2.02 fold; in that of B17, 2.55 fold. B18: the “Mean fold-increase” value is recorded as 2.26 fold. The same measure, in the same setting: then B19, with 2.25 fold.

Another experiment has as its system p1-encoded leu2 (Q180*). The experiment is described as follows: Large-scale p1 fluctuation tests of p1-encoded leu2 (Q180*), per-base substitution rate. As to conditions: per-base substitution rate, p1-encoded leu2 (Q180*), large-scale fluctuation test. It is filed as cell-based, S. cerevisiae. The source says:
All three TP-DNAP1 libraries were screened through small scale p1 fluctuation tests in a metastable S. cerevisiae strain, OR-Y24. OR-Y24 contains w.t. p1 and recombinant p1 that lacks w.t. TP-DNAP1, and instead, encodes a standardized fluorescence reporter of p1 copy number (Table 1), and a disabled version of the LEU2 selection marker (leu2 (Q180*)). As described previously (Ravikumar et al., 2014), leu2 (Q180*) contains a C→T mutation at base 538 in LEU2 at a site permissive to all single point mutants that generate missense mutations. Reversion to functional LEU2 can be detected on medium lacking leucine.
Large-scale fluctuation tests of p1-encoded leu2 (Q180*) were performed to precisely determine per-base substitution rates for individually cloned or isolated TP-DNAP1 variants. Large-scale p1 fluctuation tests are performed similarly to small-scale p1 fluctuation tests, with several modifications. First, large-scale p1 fluctuation tests were typically performed with 36-48 replicates. For highly error-prone TP-DNAP1s obtained from later rounds of screening, fewer replicates (3-16) were used, which is sufficient for similar precision (Foster et al., 2006). Second, p1 copy number was determined by the flow cytometry method, described below. Third, cell titers were measured for each fluctuation test to estimate the average number of cells per culture. Cell resuspensions were diluted and plated on solid SC-UH medium, and colony counts were determined after incubation at 30° C. for 2-3 days. Alternatively, cell resuspensions were diluted and subject to an event-count measurement via flow cytometry. Fourth, inoculums of highly error-prone TP-DNAP 1 s occasionally contained pre-existing mutants, despite the 1:10,000 dilution, so mutant frequencies were estimated by plating pre-cultures on solid SC-UHLW, pH 5.8 medium. Plates were incubated for 2-3 days, in parallel with cultures grown for fluctuation tests. Pre-culture mutant titers were counted to estimate the number of replicates in the fluctuation test expected to contain pre-existing mutants (n). Revertants were counted from all replicates of the fluctuation tests, counts were sorted, and n replicates with the highest counts were omitted from calculations.
To calculate per-base substitution rates, fluctuation data were analyzed by the maximum likelihood method, implemented using newton.LD.plating in rSalvador 1.7 (Zheng, 2017). Phenotypic mutation rates were calculated by normalizing to the average number of cells per culture. Phenotypic mutation rates were divided by the measured p1 copy number and by the number of ways leu2 (Q180*) can revert to LEU2 (2.33 for the ochre codon) to yield per-base substitution rates. 95% confidence intervals were similarly scaled by these factors. All data related to large-scale p1 fluctuation tests are fully described in Table 2.
On to B20, for which the “Mutation rate (s.p.b.)” value is 2.79 × 10^−9 s.p.b.

Consider B21, for which the “Mutation rate (s.p.b.)” value was 9.19 × 10^−9 s.p.b. On the same count and under the same terms, then B22, with 1.81 × 10^−8 s.p.b; and B23, with 9.70 × 10^−9 s.p.b.

For the molecule B24, the “Mutation rate (s.p.b.)” value is on record as 4.99 × 10^−9 s.p.b. Same read-out and setting: in the case of B25 it was 6.08 × 10^−9 s.p.b; in that of B26, 5.70 × 10^−8 s.p.b; in that of B27, 9.28 × 10^−8 s.p.b.

On to B28, for which the “Mutation rate (s.p.b.)” value is 3.04 × 10^−8 s.p.b. As to B29, the “Mutation rate (s.p.b.)” value is 2.63 × 10^−7 s.p.b.
